What was measured:
Test in all cases: holdup assay
Design in all cases: key: below the threshold = too weak to quantify, mostly under pKd 3.1 to 4
[1] = biological target: T1, ARHGAP21, Q5T5U3
T1 sequence (Q5T5U3 45-169, limits assumed, looked up): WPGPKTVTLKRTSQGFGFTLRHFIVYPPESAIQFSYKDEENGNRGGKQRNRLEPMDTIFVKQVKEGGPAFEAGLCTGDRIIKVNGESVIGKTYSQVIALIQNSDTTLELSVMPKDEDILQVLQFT

[2] = biological target: T2, ARHGEF11, O15085
T2 sequence (O15085 42-136, limits assumed, looked up): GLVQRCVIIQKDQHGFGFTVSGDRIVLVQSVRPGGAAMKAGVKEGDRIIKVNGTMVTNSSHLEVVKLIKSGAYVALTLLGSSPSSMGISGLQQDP

[3] = biological target: T3, DLG3_2, Q92796
T3 sequence (Q92796 221-321, limits assumed, looked up): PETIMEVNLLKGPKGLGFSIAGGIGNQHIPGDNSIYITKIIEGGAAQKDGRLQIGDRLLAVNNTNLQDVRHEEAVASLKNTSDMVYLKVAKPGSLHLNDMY

[4] = biological target: DLG5_1, Q8TDM6
DLG5_1, Q8TDM6, sequence (Q8TDM6 617-713): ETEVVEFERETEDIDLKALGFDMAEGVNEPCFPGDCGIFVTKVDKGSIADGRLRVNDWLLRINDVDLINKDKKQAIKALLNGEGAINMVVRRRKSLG

[5] = biological target: GORASP1, Q9BQQ3
GORASP1, Q9BQQ3, sequence (Q9BQQ3 1-208): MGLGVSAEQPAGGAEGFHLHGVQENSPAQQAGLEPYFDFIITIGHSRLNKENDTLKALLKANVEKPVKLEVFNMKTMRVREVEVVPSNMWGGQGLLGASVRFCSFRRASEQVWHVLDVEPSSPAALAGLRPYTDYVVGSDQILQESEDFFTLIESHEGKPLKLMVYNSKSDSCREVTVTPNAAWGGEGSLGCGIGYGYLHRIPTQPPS

[6] = biological target: GRIP2_5, Q9C0E4
GRIP2_5, Q9C0E4, sequence (Q9C0E4 544-642): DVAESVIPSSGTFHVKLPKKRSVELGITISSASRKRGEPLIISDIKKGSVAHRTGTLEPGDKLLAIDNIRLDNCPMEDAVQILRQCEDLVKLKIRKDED

[7] = biological target: IL16_1, Q14005
IL16_1, Q14005, sequence (Q14005 210-306): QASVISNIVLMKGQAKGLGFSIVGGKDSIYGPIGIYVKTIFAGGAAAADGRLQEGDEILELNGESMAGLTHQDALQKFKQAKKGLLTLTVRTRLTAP

[8] = biological target: IL16_4, Q14005
IL16_4, Q14005, sequence (Q14005 1229-1329): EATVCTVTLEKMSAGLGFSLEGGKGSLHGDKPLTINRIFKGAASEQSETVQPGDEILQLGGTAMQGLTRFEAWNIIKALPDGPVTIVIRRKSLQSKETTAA

[9] = biological target: Inadl_2, Q8NI35
Inadl_2, Q8NI35, sequence (Q8NI35 238-335): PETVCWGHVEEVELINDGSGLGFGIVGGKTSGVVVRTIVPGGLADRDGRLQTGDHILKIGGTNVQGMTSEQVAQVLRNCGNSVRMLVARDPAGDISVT

[10] = biological target: Inadl_8, Q8NI35
Inadl_8, Q8NI35, sequence (Q8NI35 1425-1530): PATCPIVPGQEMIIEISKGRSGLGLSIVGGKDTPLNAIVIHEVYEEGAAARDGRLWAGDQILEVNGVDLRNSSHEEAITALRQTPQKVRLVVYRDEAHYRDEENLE

[11] = biological target: LDB3, O75112
LDB3, O75112, sequence (O75112 1-94): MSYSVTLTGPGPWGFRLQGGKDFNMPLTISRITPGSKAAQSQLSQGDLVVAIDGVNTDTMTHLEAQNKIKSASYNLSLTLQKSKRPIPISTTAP

[12] = biological target: T4, LNX2_2, Q8N448
T4 sequence (Q8N448 334-432, limits assumed, looked up): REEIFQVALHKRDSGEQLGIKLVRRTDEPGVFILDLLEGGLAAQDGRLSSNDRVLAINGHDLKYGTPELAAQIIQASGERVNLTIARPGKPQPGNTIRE

[13] = biological target: MAST1, Q9Y2H9
MAST1, Q9Y2H9, sequence (Q9Y2H9 962-1065): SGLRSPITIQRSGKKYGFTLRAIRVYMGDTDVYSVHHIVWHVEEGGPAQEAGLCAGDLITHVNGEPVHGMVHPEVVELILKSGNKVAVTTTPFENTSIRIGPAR

[14] = biological target: MAST2, Q6P0Q8
MAST2, Q6P0Q8, sequence (Q6P0Q8 1099-1202): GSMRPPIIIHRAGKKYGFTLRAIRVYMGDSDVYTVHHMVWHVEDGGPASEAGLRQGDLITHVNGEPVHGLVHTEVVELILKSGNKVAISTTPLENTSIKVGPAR

[15] = biological target: T5, MPP6, Q9NZW5
T5 sequence (Q9NZW5 125-219, limits assumed, looked up): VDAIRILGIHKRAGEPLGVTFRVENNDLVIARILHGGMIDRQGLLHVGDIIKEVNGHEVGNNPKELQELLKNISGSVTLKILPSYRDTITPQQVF

[16] = biological target: NHERF2_2, Q15599
NHERF2_2, Q15599, sequence (Q15599 142-238): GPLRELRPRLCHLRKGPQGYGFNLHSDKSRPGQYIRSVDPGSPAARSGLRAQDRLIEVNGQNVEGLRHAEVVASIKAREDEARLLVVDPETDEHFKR

[17] = biological target: T6, NHERF3_3, Q5T2W1
T6 sequence (Q5T2W1 238-333, limits assumed, looked up): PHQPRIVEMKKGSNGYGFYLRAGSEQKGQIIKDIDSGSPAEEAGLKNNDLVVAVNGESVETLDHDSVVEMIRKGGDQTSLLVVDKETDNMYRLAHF

[18] = biological target: NHERF4_4, Q86UT5
NHERF4_4, Q86UT5, sequence (Q86UT5 464-550): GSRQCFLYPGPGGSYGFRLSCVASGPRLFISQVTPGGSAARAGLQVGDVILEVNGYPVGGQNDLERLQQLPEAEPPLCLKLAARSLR

[19] = biological target: T7, PCLO, Q9Y6V0
T7 sequence (Q9Y6V0 4491-4600, limits assumed, looked up): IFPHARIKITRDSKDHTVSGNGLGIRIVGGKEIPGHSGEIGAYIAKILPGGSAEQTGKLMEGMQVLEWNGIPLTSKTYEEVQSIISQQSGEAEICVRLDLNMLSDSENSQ

[20] = biological target: T8, PDZRN3_1, Q9UPQ7
T8 sequence (Q9UPQ7 244-349, limits assumed, looked up): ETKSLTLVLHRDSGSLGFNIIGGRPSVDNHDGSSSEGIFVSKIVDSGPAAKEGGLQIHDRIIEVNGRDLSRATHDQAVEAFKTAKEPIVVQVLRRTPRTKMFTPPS

[21] = biological target: PICK1, Q9NRD5
PICK1, Q9NRD5, sequence (Q9NRD5 17-115): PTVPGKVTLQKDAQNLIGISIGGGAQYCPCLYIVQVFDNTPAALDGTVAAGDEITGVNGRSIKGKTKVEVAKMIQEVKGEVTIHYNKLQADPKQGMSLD

[22] = biological target: PTPN3, P26045
PTPN3, P26045, sequence (P26045 505-587): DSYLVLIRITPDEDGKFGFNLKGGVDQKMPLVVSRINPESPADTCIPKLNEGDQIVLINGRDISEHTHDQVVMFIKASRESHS

[23] = biological target: T9, RHPN1, Q8TCX5
T9 sequence (Q8TCX5 508-602, limits assumed, looked up): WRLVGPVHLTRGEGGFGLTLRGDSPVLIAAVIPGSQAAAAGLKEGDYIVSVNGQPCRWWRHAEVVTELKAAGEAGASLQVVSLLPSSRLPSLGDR

[24] = biological target: T10, SHANK1, Q9Y566
T10 sequence (Q9Y566 658-767, limits assumed, looked up): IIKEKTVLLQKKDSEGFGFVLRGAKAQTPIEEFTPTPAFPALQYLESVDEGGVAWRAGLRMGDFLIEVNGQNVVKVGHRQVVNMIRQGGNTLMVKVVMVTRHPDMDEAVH

[25] = biological target: T11, SIPA1L2, Q9P2F8
T11 sequence (Q9P2F8 945-1036, limits assumed, looked up): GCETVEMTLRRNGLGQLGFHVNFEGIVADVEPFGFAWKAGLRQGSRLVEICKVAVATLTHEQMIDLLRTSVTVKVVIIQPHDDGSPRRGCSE

[26] = biological target: SNX27, Q96L92
[27] = biological target: TJP1_2, Q07157
TJP1_2, Q07157, sequence (Q07157 181-274): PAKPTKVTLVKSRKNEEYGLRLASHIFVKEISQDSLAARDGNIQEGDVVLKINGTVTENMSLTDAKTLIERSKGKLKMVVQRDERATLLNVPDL

[28] = plain residues with an end cap or a label only (N-terminal biotin on a linker: ado-ado)
[29] = plain residues with an end cap or a label only (N-terminal biotin on a linker: ahx)
[30] = plain residues with an end cap or a label only (N-terminal biotin on a linker: ttds)

B1: NRXN3_rs746444206, Q9Y4C0 (peptide)
chain: QKNKDKEYYV
pKd [1, 28]: 4.09 | pKd [2, 28]: 3.95 | pKd [3, 28]: below the threshold | pKd [4, 28]: below the threshold | pKd [5, 28]: 4.12 | pKd [6, 28]: below the threshold | pKd [7, 28]: below the threshold | pKd [8, 28]: below the threshold | pKd [9, 28]: 4.92 | pKd [10, 28]: below the threshold | pKd [11, 28]: below the threshold | pKd [12, 28]: 4.7 | pKd [13, 28]: below the threshold | pKd [14, 28]: 3.97 | pKd [15, 28]: 4.43 | pKd [16, 28]: below the threshold | pKd [17, 28]: below the threshold | pKd [18, 28]: below the threshold | pKd [19, 28]: below the threshold | pKd [20, 28]: below the threshold | pKd [21, 28]: below the threshold | pKd [22, 28]: 4.28 | pKd [23, 28]: below the threshold | pKd [24, 28]: below the threshold | pKd [25, 28]: below the threshold | pKd [26, 28]: below the threshold | pKd [27, 28]: below the threshold

B2: ADRB2, P07550 (peptide)
chain: RNCSTNDSLL
pKd [1, 29]: 3.56 | pKd [2, 29]: below the threshold | pKd [3, 29]: below the threshold | pKd [4, 29]: below the threshold | pKd [5, 29]: below the threshold | pKd [6, 29]: below the threshold | pKd [7, 29]: below the threshold | pKd [8, 29]: below the threshold | pKd [9, 29]: below the threshold | pKd [10, 29]: below the threshold | pKd [11, 29]: below the threshold | pKd [12, 29]: below the threshold | pKd [13, 29]: 3.74 | pKd [14, 29]: 4.08 | pKd [15, 29]: below the threshold | pKd [16, 29]: 3.7 | pKd [17, 29]: below the threshold | pKd [18, 29]: below the threshold | pKd [19, 29]: below the threshold | pKd [20, 29]: 3.54 | pKd [21, 29]: below the threshold | pKd [22, 29]: 3.53 | pKd [23, 29]: 3.94 | pKd [24, 29]: below the threshold | pKd [25, 29]: below the threshold | pKd [26, 29]: 3.6 | pKd [27, 29]: below the threshold

B3: DGKK, Q5KSL6 (peptide)
chain: DPLTPSRSQL
pKd [1, 30]: below the threshold | pKd [2, 30]: below the threshold | pKd [3, 30]: below the threshold | pKd [4, 30]: below the threshold | pKd [5, 30]: below the threshold | pKd [6, 30]: below the threshold | pKd [7, 30]: below the threshold | pKd [8, 30]: below the threshold | pKd [9, 30]: below the threshold | pKd [10, 30]: below the threshold | pKd [11, 30]: below the threshold | pKd [12, 30]: below the threshold | pKd [13, 30]: 4.16 | pKd [14, 30]: 4.36 | pKd [15, 30]: below the threshold | pKd [16, 30]: below the threshold | pKd [17, 30]: below the threshold | pKd [18, 30]: below the threshold | pKd [19, 30]: below the threshold | pKd [20, 30]: below the threshold | pKd [21, 30]: below the threshold | pKd [22, 30]: below the threshold | pKd [23, 30]: below the threshold | pKd [24, 30]: 4.11 | pKd [25, 30]: below the threshold | pKd [26, 30]: below the threshold | pKd [27, 30]: below the threshold

B4: NHERF3, Q5T2W1 (peptide)
chain: SSSNSEDTEM
pKd [1, 29]: below the threshold | pKd [2, 29]: below the threshold | pKd [3, 29]: below the threshold | pKd [4, 29]: below the threshold | pKd [5, 29]: below the threshold | pKd [6, 29]: below the threshold | pKd [7, 29]: below the threshold | pKd [8, 29]: below the threshold | pKd [9, 29]: below the threshold | pKd [10, 29]: below the threshold | pKd [11, 29]: below the threshold | pKd [12, 29]: below the threshold | pKd [13, 29]: 3.94 | pKd [14, 29]: 4.5 | pKd [15, 29]: below the threshold | pKd [16, 29]: 4.25 | pKd [17, 29]: below the threshold | pKd [18, 29]: below the threshold | pKd [19, 29]: below the threshold | pKd [20, 29]: below the threshold | pKd [21, 29]: below the threshold | pKd [22, 29]: 3.64 | pKd [23, 29]: 3.98 | pKd [24, 29]: below the threshold | pKd [25, 29]: below the threshold | pKd [26, 29]: 4.16 | pKd [27, 29]: below the threshold
